Test results reported in patent publication US20140221281A1 (Sanofi, published 2014).
Where no end group is shown, it is not given here.

Legend:
[1] = target: human GLP-1 receptor (human, UniProt P43220 24-463); experiment: cell-based or functional assay
[2] = target: T1, human GIP receptor (human, UniProt P48546 22-466); experiment: cell-based or functional assay
T1 sequence (looked up): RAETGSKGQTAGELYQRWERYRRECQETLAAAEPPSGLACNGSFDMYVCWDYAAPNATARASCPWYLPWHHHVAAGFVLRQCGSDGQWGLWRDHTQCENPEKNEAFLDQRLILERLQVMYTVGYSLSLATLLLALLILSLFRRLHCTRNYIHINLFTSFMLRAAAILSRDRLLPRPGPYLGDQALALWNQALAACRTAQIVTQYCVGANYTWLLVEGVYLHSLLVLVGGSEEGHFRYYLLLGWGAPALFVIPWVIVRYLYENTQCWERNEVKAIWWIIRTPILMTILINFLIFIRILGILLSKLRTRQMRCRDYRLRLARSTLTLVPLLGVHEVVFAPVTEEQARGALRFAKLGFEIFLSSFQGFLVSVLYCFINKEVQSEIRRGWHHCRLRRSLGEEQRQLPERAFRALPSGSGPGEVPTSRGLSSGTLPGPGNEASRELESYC

Sequence of human GLP-1 receptor (P43220 24-463): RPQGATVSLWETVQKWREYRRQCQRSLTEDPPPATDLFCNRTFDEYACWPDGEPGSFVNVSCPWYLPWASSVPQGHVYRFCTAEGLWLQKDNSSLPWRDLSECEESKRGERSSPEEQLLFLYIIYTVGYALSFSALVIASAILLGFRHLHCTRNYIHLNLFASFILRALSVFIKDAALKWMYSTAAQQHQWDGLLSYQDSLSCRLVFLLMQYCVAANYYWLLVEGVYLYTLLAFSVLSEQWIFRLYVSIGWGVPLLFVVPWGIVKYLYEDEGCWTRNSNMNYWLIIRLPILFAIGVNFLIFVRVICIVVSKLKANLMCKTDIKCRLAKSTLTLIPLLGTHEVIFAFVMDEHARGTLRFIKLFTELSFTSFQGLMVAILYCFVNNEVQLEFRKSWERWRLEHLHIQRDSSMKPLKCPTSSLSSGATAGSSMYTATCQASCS

YAEGTFTSDVSIYLEGQAAKEFIAWLVKGR-NH2 [Tyr(1)Ile(12)-GLP1]
EC50 hGLP-1 R [pM] (cAMP formation) [1]: 5 pM | EC50 hGIP R [pM] (cAMP formation) [2]: 3660 pM
